The values that follow come from patent publication US20020106775.

This data set has as its system plasminogen.

For the substance “LMW-uPA-A279 (LMW-uPA with Cys279 to Ala279 replacement)”, the zymography result is reported as “the product shown to be active in zymography (data not shown)”.
